According to US20110027235:

How the values were obtained:
[1] = tested on: ZFN 16234 (OCT4 pair 3, L) (synthetic); experiment: cell_activity; details: ZFN pair 3 with 16233, 2.5 ug, BG01 hESC; only 2 clones; 0% at 10 ug (1 clone); labelled pair 2 in Table 3
[2] = tested on: ZFN 16233 (OCT4 pair 3, R) (synthetic); experiment: cell_activity; details: ZFN pair 3 with 16234, 2.5 ug, BG01 hESC; only 2 clones; 0% at 10 ug (1 clone); labelled pair 2 in Table 3

Sequence | activity (% targeting efficiency) [1] | activity (% targeting efficiency) [2]
CCCAGGAGAGGAGCAGGCAGGGTCAGCT (double strand) [OCT4 target of 16234] | 50 | 
GCCAGGTCTGGGCAGCTGCAGGTGACCA (double strand) [OCT4 target of 16233] |  | 50
